The values below come from patent US20200148777A1 (GAMAMABS PHARMA, published 2020).

In test [1] the target is T1, MISRII (AMHRII), immobilised on CM5 sensor chip (UniProt Q16671 18-144, limits assumed).
T1 construct: also called MSRII; immobilized receptor
T1 sequence (looked up): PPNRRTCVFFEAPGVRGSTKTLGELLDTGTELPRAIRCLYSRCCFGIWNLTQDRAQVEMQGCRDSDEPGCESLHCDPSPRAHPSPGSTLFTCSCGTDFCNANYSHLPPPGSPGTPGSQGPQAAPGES
The experiment in a line: SPR, MISRII immobilised on CM5 chip, IgG injected, Langmuir 1:1 fit (affinity and avidity). As for the experimental part: (§1) SPR analyses were performed on a Bia3000 or T200 apparatus at 25° C. in HBS-EP (GE Healthcare). For affinity measurements, MISRII was covalently immobilized (1000 RU) on CM5 sensor chip using EDC/NHS activation according to the manufacturer's instructions (GE Healthcare). Different concentrations (0.5-128 nM) of 12G4 or 3C23K were injected on immobilized receptor during 180 seconds. After 400 seconds of dissociation in running buffer, the sensor chip was regenerated using Gly-HCl pH 1.7. The KD values, taking into account affinity and avidity, were calculated using a Langmuir 1:1 fitting model (BiaEvaluation3.2, GE Healthcare). Antibody-FcγR measurements were performed by single-cycle titration at 100 μl/min on FcγR (Sigma) captured on anti-His (R&D Systems) covalently immobilized at 4000-5000 RU level. The gamma receptor was injected at 20 nM during 60 seconds and five increasing antibody concentrations were injected (injection time=60 seconds). […] Kinetic parameters were evaluated from the sensorgrams using a heterogeneous Ligand or steady-state fitting models on the T200 evaluation software 3.0 (GE healthcare). […]
To better define the binding characteristics, clone 3C23K was reformatted as an IgG1 antibody, produced in YB2/0 cells and analyzed by surface plasmon resonance (SPR). […]

Test [2] addresses T2, human Fcγ RIIIa/CD16a (human, UniProt P08637 17-208).
T2 construct: Captured through anti-His antibody, so a His tag is implied but not described; also called hFcγRIIIa
Kind of test: SPR, single-cycle titration, FcγR captured on anti-His; 3C23K from YB2/0, low fucose (33.0% fucosylated); upper end of the range 1-12 nM. The protocol:
as §1
(§2) The percentages of fucosylated, galactosylated and bisecting GlcNAc isoforms were 33.0%, 57.2% and 1.8% for 3C23K and 94.6%, 54.4% and 2.0%, for 3C23K-CHO, respectively. The effect of these glycosylation differences on the binding to FcγRs was analyzed by SPR.

Test [3] addresses T2, human Fcγ RIIIa/CD16a. Kind of test: SPR, single-cycle titration, FcγR captured on anti-His; 3C23K from YB2/0, low fucose (33.0% fucosylated); lower end of the range 1-12 nM. The protocol:
as §1, §2

In test [4] the target is T3, human Fcγ RI/CD64 (human, UniProt P12314 16-288).
T3 construct: Captured through anti-His antibody, so a His tag is implied but not described; also called hFcγRI
The experiment in a line: SPR T200, single-cycle titration, receptor captured on anti-His; two state reaction model. The protocol: (§3) Anti-histidine antibodies (R&D Systems) were immobilized on a T200 apparatus at 25° C. in HBS-EP at 10 μl/min flow rate on a CM5 sensor chip using EDC/NHS activation, according to the manufacturer's instructions (GE Healthcare). They were covalently immobilized at the 6900RU level on the flowcell Fc2 and a control reference surface (flowcell Fc1) was prepared using the same chemical treatment but without anti-His antibodies.
(§4) All kinetic measurements in Fc1 and Fc2 were performed by single-cycle titration on a T200 apparatus at 25° C. in HBS-EP at 100 μl/min. Each human gamma receptor (R&D Systems) was captured on immobilized anti-His antibodies at 20 nM during 60 s. Five increasing concentrations of antibody were injected (injection time=120 s). After a dissociation step of 600 s in running buffer, sensor surfaces were regenerated using 5 μl of glycine-HCl pH1.7. All the sensorgrams were corrected by subtracting the low signal from the control reference surface and buffer blank injections. Kinetic parameters were evaluated from the sensorgrams using a heterogeneous ligand or two states models from the T200 evaluation software.
(§5) The results of the measure of the affinity constants (Kd) of the hypo-fucosylated anti-AMHRII 3C23K antibody for the human Fc receptors are depicted in Table 4 below.

Test [5] concerns the target T4, human Fcγ RIIIb/hCD16b (human, UniProt O75015 17-200).
T4 construct: Captured through anti-His antibody, so a His tag is implied but not described; also called hFcγRIIIb
The experiment in a line: SPR, single-cycle titration, FcγR captured on anti-His; 3C23K from YB2/0, low fucose (33.0% fucosylated). As for the experimental part:
as §1, §2

The target of test [6] is T4, human Fcγ RIIIb/hCD16b. The experiment in a line: SPR T200, single-cycle titration, receptor captured on anti-His; heterogeneous ligand model (footnote *). As for the experimental part:
as §3, §4, §5

The target of test [7] is T5, human Fcγ RII/CD32a (human, UniProt P12318 36-218).
T5 construct: Captured through anti-His antibody, so a His tag is implied but not described; also called hFcγRIIa
T5 sequence (looked up): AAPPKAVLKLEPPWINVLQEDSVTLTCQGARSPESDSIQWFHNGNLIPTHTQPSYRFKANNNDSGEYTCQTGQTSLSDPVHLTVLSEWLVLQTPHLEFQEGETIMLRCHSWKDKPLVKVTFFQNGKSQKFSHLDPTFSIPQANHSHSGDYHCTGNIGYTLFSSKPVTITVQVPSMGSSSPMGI
The description is as above. The protocol:
as §3, §4, §5

In test [8] the target is T2, human Fcγ RIIIa/CD16a. Kind of test: SPR (Biacore); description's upper bound for hypofucosylated 3C23K (YB2/0).
The target in test [9] is T2, human Fcγ RIIIa/CD16a. Kind of test: SPR, single-cycle titration, FcγR captured on anti-His; 3C23K-HEK293, expressed in HEK293 (comparator, not fucose-reduced); upper end of the range 31-164 nM. The protocol:
as §1, §2

The target in test [10] is T6, human Fcγ RIIbc/CD32bc (human, UniProt P31994 46-217).
T6 construct: treated here as one molecule; also called hFcγRIIb
T6 sequence (looked up): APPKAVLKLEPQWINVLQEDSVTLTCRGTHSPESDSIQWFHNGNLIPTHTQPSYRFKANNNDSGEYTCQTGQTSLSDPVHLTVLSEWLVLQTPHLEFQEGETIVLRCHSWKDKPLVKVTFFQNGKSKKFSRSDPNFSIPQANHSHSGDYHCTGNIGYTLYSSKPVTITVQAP
Kind of test: SPR, FcγR captured on anti-His. The protocol: as §1, §2

Test [11] concerns the target T3, human Fcγ RI/CD64. Kind of test: SPR, FcγR captured on anti-His. As for the experimental part: as §1, §2
Test [12] has as its target T2, human Fcγ RIIIa/CD16a. Kind of test: SPR, single-cycle titration, FcγR captured on anti-His; 3C23K-HEK293, expressed in HEK293 (comparator, not fucose-reduced); lower end of the range 31-164 nM. The protocol: as §1, §2
In test [13] the target is T4, human Fcγ RIIIb/hCD16b. The experiment in a line: SPR, single-cycle titration, FcγR captured on anti-His; 3C23K-HEK293, expressed in HEK293 (comparator, not fucose-reduced). The protocol:
as §1, §2

T4 sequence (O75015 17-200 limits assumed): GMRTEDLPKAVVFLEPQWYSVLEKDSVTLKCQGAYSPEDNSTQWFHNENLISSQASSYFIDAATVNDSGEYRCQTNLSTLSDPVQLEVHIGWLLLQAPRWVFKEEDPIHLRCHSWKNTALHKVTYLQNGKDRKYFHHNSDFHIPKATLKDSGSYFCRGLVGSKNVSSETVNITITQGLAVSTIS
T2 sequence (P08637 17-208 limits assumed): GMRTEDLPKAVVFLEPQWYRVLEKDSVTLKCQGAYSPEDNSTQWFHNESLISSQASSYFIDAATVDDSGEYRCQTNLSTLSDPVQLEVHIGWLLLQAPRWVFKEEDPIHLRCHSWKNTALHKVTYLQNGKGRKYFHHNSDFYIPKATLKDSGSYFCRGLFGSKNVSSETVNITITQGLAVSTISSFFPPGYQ
T3 sequence (P12314 16-288 limits assumed): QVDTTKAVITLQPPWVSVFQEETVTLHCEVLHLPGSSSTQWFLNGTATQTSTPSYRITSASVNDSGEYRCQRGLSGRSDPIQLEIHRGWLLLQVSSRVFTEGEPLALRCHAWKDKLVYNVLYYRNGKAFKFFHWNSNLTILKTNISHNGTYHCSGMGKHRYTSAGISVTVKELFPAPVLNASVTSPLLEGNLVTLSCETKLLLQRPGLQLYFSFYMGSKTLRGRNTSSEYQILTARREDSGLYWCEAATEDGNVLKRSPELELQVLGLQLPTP

B1: murine anti-MISRII monoclonal antibody 12G4 (antibody, V domains shown)
VH: QVQLQQSGPELVKPGASVRMSCKASGYTFTSYHIHWVKQRPGQGLEWIGWIYPGDDSTKYNEKFKGKTTLTADKSSSTAYMLLSSLTSEDSAIYFCTRGDRFAYWGQGTLVTVSA
VL: QIVLTQSPAIMSASLGEGITLTCSASSSVRYIHWYQQKSGTSPKLLIYSTSNLASGVPSRFSGSGSGTFHSLTISSVEAEDAADYYCLQWSSYPWTFGGGTKLEIK
The molecule B1 showed a Kd in test [1] of 0.79 nM.

B2: 3C23K humanised anti-AMHRII monoclonal antibody produced in YB2/0 cells (hypofucosylated, EMABling version) (antibody, human IgG1, kappa)
heavy: not shown
light: DIQMTQSPSTLSASVGDRVTITCRASSSVRYIAWYQQKPGKAPKLLTYPTSSLKSGVPSRFSGSGSGTEFTLTISSLQPDDFATYYCLQWSSYPWTFGGGTKVEIKRTVAAPSVFIFPPSDEQLKSGTASVVCLLNNFYPREAKVQWKVDNALQSGNSQESVTEQDSKDSTYSLSSTLTLSKADYEKHKVYACEVTHQGLSSPVTKSFNRGEC
modifications: N-glycan at ASN295 of the heavy chain, hypofucosylated (33.0% fucosylated isoforms for 3C23K from YB2/0)
notes: also called GM102; R18H2
In the case of B2, the Kd in test [2] is no more than 12 nM; in [3] it was no less than 1 nM; in test [4] it was 0.2 to 3.3 nM; in [1] it was 0.055 nM; in test [5], 86 nM; in test [6] it was 49 nM. Further, the results for the Kd in test [7] and in test [8] were 120 nM and less than 50 nM, respectively.

B3: 3C23K antibody expressed in HEK293 cells (antibody, human IgG1, kappa)
heavy: not shown
light: B2 light
notes: It differs from m1 only in glycosylation; also called 3C23K-HEK293
As to B3, the figures for the Kd in [9], in [12] and in [13] were no more than 164 nM, no less than 31 nM and 378 nM, respectively. The binding result in test [10] and in test [11] was “binds” throughout.
